The supplement of paper PMC7125110
± gives the standard error. For some assays here: Fewer inactive variants are shown than the library holds.

B1: glmS ribozyme (parent)
chain: AUAAAAGCGCCAGAACUACAGAAAUGUAGUUGACGAGGAGGAGGUUUAUCGAAUUUUCGGCGGAUGCCUCCAAA

Key:
Conditions in all cases: with glucosamine-6-phosphate
glucosamine-6-phosphate [1] = variants of: B1; assay: kcat; higher = faster cleavage; RNA array
Method in brief: (§1)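 Tiles of sequenced MiSeq chips were imaged over ~14 h at 37 °C. On them, barcoded ribozyme variants had been transcribed in situ by E. coli RNA polymerase and were tracked via a hybridised Cy3 probe while glucosamine-6-phosphate (40 μM to 10 mM) in HEPES/KCl/Mg(OAc)2 buffer flowed in. Per-tile medians, normalised to baseline and to non-cleaving reference variants, were fit to one- or two-exponential decays for kobs, and weighted Michaelis–Menten fits gave kcat and KM.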

glucosamine-6-phosphate [2] = variants of: B1; assay: KM; higher = weaker cofactor use; RNA array
Method in brief: as §1

glucosamine-6-phosphate [3] = variants of: B1; assay: self-cleavage kobs at 640 uM GlcN6P; higher = faster cleavage; RNA array
Method in brief: as §1

glucosamine-6-phosphate [4] = variants of: B1; assay: self-cleavage kobs at 2500 uM GlcN6P; higher = faster cleavage; RNA array
Method in brief: as §1

glucosamine-6-phosphate [5] = variants of: B1; assay: self-cleavage kobs at 10000 uM GlcN6P; higher = faster cleavage; RNA array
Method in brief: as §1

glucosamine-6-phosphate [6] = variants of: B1; assay: self-cleavage kobs at 160 uM GlcN6P; higher = faster cleavage; RNA array
Method in brief: as §1

glucosamine-6-phosphate [7] = variants of: B1; assay: self-cleavage kobs at 40 uM GlcN6P; higher = faster cleavage; RNA array
Method in brief: as §1

Row | Variant | kcat (glucosamine-6-phosphate [1]) [s⁻¹] | KM (glucosamine-6-phosphate [2]) [µM] | self-cleavage kobs at 640 uM GlcN6P (glucosamine-6-phosphate [3]) [s⁻¹] | self-cleavage kobs at 2500 uM GlcN6P (glucosamine-6-phosphate [4]) [s⁻¹] | self-cleavage kobs at 10000 uM GlcN6P (glucosamine-6-phosphate [5]) [s⁻¹] | self-cleavage kobs at 160 uM GlcN6P (glucosamine-6-phosphate [6]) [s⁻¹] | self-cleavage kobs at 40 uM GlcN6P (glucosamine-6-phosphate [7]) [s⁻¹]
1 | U30G C67G | 0.000155 ± 9.6e-06 | 2050 ± 310 | 3.99e-05 ± 9.3e-06 | 8.11e-05 ± 1e-05 | 0.000132 ± 1.6e-05 | – | –
2 | U31C U56C | 0.00169 ± 0.00055 | 2910 ± 1200 | 0.000331 ± 5.8e-05 | 0.000644 ± 0.00011 | 0.00171 ± 0.00034 | 9.03e-05 ± 1.1e-05 | –
3 | G29U U65A | 0.000516 ± 4.5e-05 | 2110 ± 340 | 0.000114 ± 1.9e-05 | 0.000323 ± 5.9e-05 | 0.000411 ± 6e-05 | 3.8e-05 ± 1.4e-05 | –
4 | G29U U65G | 0.00182 ± 0.0005 | 4450 ± 1800 | 0.000188 ± 3e-05 | 0.000739 ± 0.0001 | 0.00124 ± 0.00017 | 8.11e-05 ± 1.6e-05 | 3.41e-05 ± 1.4e-05
5 | U31A C68G | 3.4e-05 ± 9.3e-07 | 408 ± 78 | – | 2.78e-05 ± 1.1e-05 | 3.32e-05 ± 8.1e-06 | – | –
6 | U31C G59A | 1.58e-05 ± 4.5e-06 | – | – | – | – | – | –
7 | U31A A53G | 0.0153 ± 0.0017 | 1860 ± 270 | 0.0038 ± 0.00071 | 0.0096 ± 0.0019 | 0.0127 ± 0.002 | 0.00107 ± 0.00018 | 0.00035 ± 4.3e-05
8 | U30A U31G | 0.0198 ± 0.0021 | 2040 ± 290 | 0.00508 ± 0.0011 | 0.00933 ± 0.0019 | 0.0178 ± 0.003 | 0.00148 ± 0.00031 | 0.000379 ± 4.9e-05
9 | G29U C71G | 0.000186 ± 4.6e-05 | – | 8.34e-05 ± 7.2e-06 | 0.000186 ± 2.6e-05 | 0.000186 ± 1.9e-05 | 6.19e-05 ± 9.3e-06 | 3.23e-05 ± 9.4e-06
10 | G29U U57C | 6.81e-05 ± 7.7e-06 | 3360 ± 1100 | – | 2.73e-05 ± 7.7e-06 | 5.13e-05 ± 6.5e-06 | – | –
11 | U31A A33G C70A | 1.81e-05 ± 5.1e-06 | – | – | – | – | – | –
12 | G29U G38U U69G | 7.45e-05 ± 3.4e-05 | – | 0.00014 ± 6.1e-05 | 0.000102 ± 4.6e-05 | – | 9.11e-05 ± 1.8e-05 | –
13 | U31C G32C | 0.000493 ± 0.00011 | 4480 ± 2100 | – | 0.00017 ± 2.6e-05 | 0.000344 ± 3.5e-05 | – | –
14 | U30G U54G | 0.00551 ± 0.002 | – | 0.00144 ± 0.00032 | 0.00254 ± 0.00053 | 0.00743 ± 0.0011 | 0.000615 ± 0.0001 | 0.000203 ± 4.6e-05
15 | U30A U45A C50U | < 1e-05 | – | – | – | – | < 1e-05 | –
16 | U30C A33U | 1.74e-05 ± 7.2e-07 | 944 ± 280 | – | – | – | – | –

Row | Variant | kcat (glucosamine-6-phosphate [1]) [s⁻¹] | KM (glucosamine-6-phosphate [2]) [µM] | self-cleavage kobs at 640 uM GlcN6P (glucosamine-6-phosphate [3]) [s⁻¹] | self-cleavage kobs at 2500 uM GlcN6P (glucosamine-6-phosphate [4]) [s⁻¹] | self-cleavage kobs at 10000 uM GlcN6P (glucosamine-6-phosphate [5]) [s⁻¹] | self-cleavage kobs at 160 uM GlcN6P (glucosamine-6-phosphate [6]) [s⁻¹] | self-cleavage kobs at 40 uM GlcN6P (glucosamine-6-phosphate [7]) [s⁻¹]
17 | U30C U55C | 0.000295 ± 3.2e-05 | 1490 ± 290 | 8.83e-05 ± 8.8e-06 | 0.000167 ± 2.4e-05 | 0.000281 ± 3.9e-05 | 3.54e-05 ± 9.7e-06 | –
18 | U30C U56C | 0.000116 ± 7.6e-06 | 4270 ± 610 | – | 4.38e-05 ± 4.8e-06 | 8.1e-05 ± 7e-06 | – | –
19 | U30C G40U | 4.56e-05 ± 6.3e-06 | – | – | 5.33e-05 ± 1.1e-05 | 4.17e-05 ± 6.9e-06 | – | –
20 | U30A C58G | 5.56e-05 ± 1.8e-05 | – | – | 8.28e-05 ± 2.5e-05 | 4.77e-05 ± 1.1e-05 | – | –
21 | U30A A52U C70U | 7.84e-05 ± 3.9e-06 | 89.4 ± 24 | 7.62e-05 ± 1.7e-05 | 7.31e-05 ± 1.4e-05 | 7.39e-05 ± 2.7e-05 | 4.9e-05 ± 1.3e-05 | –
22 | U31C A52G C67U | 0.000208 ± 9.4e-05 | – | 9.07e-05 ± 3.5e-05 | 6.61e-05 ± 1.4e-05 | 0.000147 ± 2.6e-05 | – | –
23 | U31C C68U | 0.000617 ± 9.3e-05 | 1690 ± 450 | 0.000175 ± 1.2e-05 | 0.000321 ± 2.9e-05 | 0.000583 ± 4.8e-05 | 5.34e-05 ± 8.6e-06 | 3.14e-05 ± 9.7e-06
24 | G29U U69A | 5.85e-05 ± 1.1e-05 | – | 3.35e-05 ± 1e-05 | 6.77e-05 ± 9.3e-06 | 4.84e-05 ± 1.1e-05 | – | –
25 | U31C C58A | 0.000146 ± 6.8e-06 | 1390 ± 210 | 5.08e-05 ± 1.5e-05 | 8.99e-05 ± 1.5e-05 | 0.00013 ± 1.5e-05 | – | –
26 | G29U U54G | 0.00305 ± 0.00096 | 1760 ± 820 | 0.00114 ± 0.00016 | 0.0013 ± 0.00024 | 0.00321 ± 0.00046 | 0.000223 ± 4.1e-05 | 7.25e-05 ± 1.3e-05
27 | U30A U65A | 0.000636 ± 0.00012 | 2480 ± 800 | 0.000114 ± 2.4e-05 | 0.000384 ± 8.4e-05 | 0.000495 ± 8.6e-05 | 5.83e-05 ± 2e-05 | –
28 | U30C A36C | < 1e-05 | – | – | < 1e-05 | < 1e-05 | – | < 1e-05
29 | G29U G40C | 0.000254 ± 6.3e-05 | – | 0.000105 ± 2.4e-05 | 0.000138 ± 3.6e-05 | 0.000281 ± 5.2e-05 | – | –
30 | G29U G40A | 0.000509 ± 4.9e-05 | 859 ± 180 | 0.000221 ± 3.7e-05 | 0.000464 ± 6.4e-05 | 0.000441 ± 4.7e-05 | 7.2e-05 ± 1.3e-05 | 2.61e-05 ± 7.8e-06
31 | U31C G40C | 0.000274 ± 4.9e-05 | – | 0.000125 ± 5e-05 | 0.000177 ± 4e-05 | 0.000287 ± 6.9e-05 | – | –
